The record followed here is paper PMC4452428 (Biotechnology and bioengineering, 2015).

Data set [1] can be described thus: Michaelis-Menten kinetics, colorimetric nitrocefin assay. In kind it is biochemical. The note with it: nitrocefin 10 μM to 500 μM, 96-well, triplicate.
The test system of data set [2] is MHC II alleles DRB1*0101, 0401, 0701, and 1501. The following applies: IC50≥100 μM; average per protein for designs.

B1: P99 beta-lactamase (protein, UniProt P05364 21-381, looked up)
Beta-lactamase: TPVSEKQLAEVVANTITPLMKAQSVPGMAVAVIYQGKPHYYTFGKADIAANKPVTPQTLFELGSISKTFTGVLGGDAIARGEISLDDAVTRYWPQLTGKQWQGIRMLDLATYTAGGLPLQVPDEVTDNASLLRFYQNWQPQWKPGTTRLYANASIGLFGALAVKPSGMPYEQAMTTRVLKPLKLDHTWINVPKAEEAHYAWGYRDGKAVRVSPGMLDAQAYGVKTNVQDMANWVMANMAPENVADASLKQGIALAQSRYWRIGSMYQGLGWEMLNWPVEANTVVEGSDSKVALAPLPVAEVNPPAPPVKASWVHKTGSTGGFGSYVAFIPEKQIGIVMLANTSYPNPARVEAAYHILEALQ
As for B1, the Km in data set [1] (non-linear regression, biological duplicate) came to 80 ± 10 µM. Besides, in data set [1] (non-linear regression, enzymes purified and assayed in biological duplicate), the kcat was 360 ± 20 s⁻¹. Also, the kcat/Km in data set [1] (biological duplicate) was found to be 4.6 ± 0.7 s^−1μM^−1. Further, in data set [2], the “non-binding peptides out of 36” value is listed as 13/36.

By Km is commonly meant the concentration of substrate that gives half-maximal velocity. The kcat is the maximal rate divided by the concentration of active sites.
